Source: patent US6600012

Biological target: HLA.A2 on T2 mutant cells
Test: T2 cell HLA.A2 upregulation assay, flow cytometry with MA2.1

FLPSDYFPSV (modifications not checked) […, positive control peptide] showed a % Change in mean channel intensity of 428%.
